# Where two headings read alike, the source gives them in different places.
# T1: 狨猴(marmoset) Tim-3蛋白 (狨猴(marmoset), UniProt F7I881 21-290)
# T1 sequence: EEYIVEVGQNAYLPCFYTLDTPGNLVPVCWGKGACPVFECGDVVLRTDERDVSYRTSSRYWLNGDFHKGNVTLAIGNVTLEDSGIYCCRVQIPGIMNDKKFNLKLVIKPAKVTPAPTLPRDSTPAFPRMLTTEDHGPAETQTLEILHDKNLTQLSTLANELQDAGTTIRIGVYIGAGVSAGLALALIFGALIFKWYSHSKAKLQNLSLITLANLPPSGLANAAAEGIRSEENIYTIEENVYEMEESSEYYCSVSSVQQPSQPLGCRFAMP
# How the values were obtained:
# [1] = target: T2, 人TIM-3 (recombinant antigen of the ELISA of Example 3: TIM-3-hFc captured on goat-anti-hFc, or Tim-3-his … (human, UniProt Q8TDQ0 22-202)); test: ELISA on human TIM-3 (Example 3)
# T2 construct: extracellular domain; also called 人TIM-3抗原; not shown: a His tag instead if Tim-3-his was coated
# [2] = target: T3, 人Tim-3 (antigen, analyte of the Biacore assay of Example 7) (human, UniProt Q8TDQ0 22-199); test: SPR, Biacore T200, antibody captured on Protein A, TIM-3 as analyte, 1:1 Langmuir
# T3 construct: Antibody captured on Protein A chip, antigen TIM-3 flowed at 0-30 nM; also called 抗原TIM-3
# [3] = target: T2, 人TIM-3 (recombinant antigen of the …); test: ELISA on human TIM-3, against ABTIM3 as reference
# [4] = target: T2, 人TIM-3 (recombinant antigen of the …); test: ELISA on human TIM-3 (Example 3); remark: listed apart in the source
# [5] = target: T4, 人Tim-3 on CHO-K1 hTim-3+ cells (human, UniProt Q8TDQ0 22-301); test: cell ELISA on fixed CHO-K1 hTim-3+ cells (Example 2)
# T4 construct: whole, on cells; Mature protein 22-301; also called hTim-3+细胞; 人Tim-3+细胞
# 猕猴(Macaca)Tim-3蛋白 [6] = target: 猕猴(Macaca)Tim-3蛋白 (猕猴(Macaca)); test: ELISA, against ABTIM3 as reference
# [7] = target: T3, 人Tim-3 (antigen, analyte of the Biacore …); test: SPR, Biacore, method of Example 7
# 猕猴(Macaca)Tim-3蛋白 [8] = target: 猕猴(Macaca)Tim-3蛋白 (猕猴(Macaca)); test: ELISA (method of Example 3), Fig. 4a
# 狨猴(marmoset) Tim-3蛋白 = target: T1, 狨猴(marmoset) Tim-3蛋白; test: ELISA (method of Example 3), Fig. 4b
Binder,EC50 [4] [nM],EC50 [5] [nM],also measured
"mab15-c (嵌合抗体, hIgG4-κ) (antibody, V domains shown, Chimeric antibody: mab15 variable regions with human IgG4 / kappa constant regions) VH: EVKLVESEGGLVQPGSSMKLSCTASGFTFSDYYMTWVRQVPEKGLEWVASINYDGRNTYYLDSLKSRFIISRDNAKNILYLQMSSLKSEDTATYYCARGYYYYGSSPNYFDYWGQGTTLTVSS VL: DIQMTQSPASLSASVGETVTITCRASENIYSYLTWYQQKQGKSPQLLVYNAKTLAEGVPSRFSGSGSGTQFSLRINSLQPEDFGNYYCQQHYGTPLTFGAGTKLELKR",0.183,,"EC50 [1]: 0.158 nM; Kd [2]: 0.31 nM; koff [2]: 0.000106 s⁻¹; kon [2]: 344000 M⁻¹ s⁻¹; fold better than the reference antibody (ratio of EC50, reference/mab15-c) [3]: 2.38 fold"
"人源化ab16 抗体 (antibody, human IgG4 S228P, kappa, V domains shown, Humanized, hIgG4-kappa) VH: EVQLVESGGGLVKPGGSLRLSCAASGFTFSDYYMTWVRQAPGKGLEWVASINYDGRNTYYLDSLKSRFTISRDNAKNSLYLQMNSLRAEDTAVYYCARGYYYYGSSPNYFDYWGQGTLVTVSS VL: DIQMTQSPSSLSASVGDRVTITCRASENIYSYLTWYQQKPGKSPKLLVYNAKTLAEGVPSRFSGSGSGTQFSLTISSLQPEDFANYYCQQHYGTPLTFGQGTKLEIKR",0.145,0.151,
"ABTIM3 (阳性对照抗体) (antibody, V domains shown) VH: QVQLQQPGAELVKPGASVKMSCKASGYTFTSYNMHWIKQTPGQGLEWIGDIYPGNGDTSYNQKFKGKATLTADKSSSTVYMQLSSLTSEDSAVYYCARVGGAFPMDYWGQGTSVTVSS VL: DIVLTQSPASLAVSLGQRATISCRASESVEYYGTSLMQWYQQKPGQPPKLLIYAASNVESGVPARFSGSGSGTDFSLNIHPVEEDDIAIYFCQQSRKDPSTFGGGTKLEIK",,0.15 to 0.23,EC50 [1]: 0.376 nM; EC50 (狨猴(marmoset) Tim-3蛋白): 0.4 nM; EC50 (猕猴(Macaca)Tim-3蛋白 [8]): 0.14 nM
"人源化ab17抗体 (antibody, human IgG4 S228P, kappa, V domains shown, Humanized, hIgG4-kappa) VH: EVQLVESGGGLVKPGGSLRLSCAASGFTFSDYYMTWVRQAPGKGLEWVASINYDGRNTYYLDSLKSRFTISRDNAKNSLYLQMNSLRAEDTAVYYCARGYYYYGSSPNYFDYWGQGTLVTVSS VL: DIQMTQSPSSLSASVGDRVTITCRASENIYSYLTWYQQKPGKSPKLLVYNAKTLAEGVPSRFSGSGSGTQFTLTISSLQPEDFATYYCQQHYGTPLTFGQGTKLEIKR",0.212,,
"人源化ab23抗体 (antibody, human IgG4 S228P, kappa, V domains shown, Humanized, hIgG4-kappa) VH: EVQLVESGGGLVKPGGSLRLSCAASGFTFSDYYMTWVRQAPGKGLEWVASINYDGRNTYYLDSLKSRFTISRDNAKNILYLQMNSLRAEDTAVYYCARGYYYYGSSPNYFDYWGQGTLVTVSS VL: DIQMTQSPSSLSASVGDRVTITCRASENIYSYLTWYQQKPGKSPKLLVYNAKTLAEGVPSRFSGSGSGTQFSLTISSLQPEDFANYYCQQHYGTPLTFGQGTKLEIKR",0.21,,

# Further binders by falling EC50 [4], results first:
EC50 [4] [nM],EC50 [5] [nM],Binder,also measured
0.243,,"人源化ab24抗体 (antibody, human IgG4 S228P, kappa, V domains shown, Humanized, hIgG4-kappa) VH: EVQLVESGGGLVKPGGSLRLSCAASGFTFSDYYMTWVRQAPGKGLEWVASINYDGRNTYYLDSLKSRFTISRDNAKNILYLQMNSLRAEDTAVYYCARGYYYYGSSPNYFDYWGQGTLVTVSS VL: DIQMTQSPSSLSASVGDRVTITCRASENIYSYLTWYQQKPGKSPKLLVYNAKTLAEGVPSRFSGSGSGTQFTLTISSLQPEDFATYYCQQHYGTPLTFGQGTKLEIKR",
0.233,,"人源化ab30抗体 (antibody, human IgG4 S228P, kappa, V domains shown, Humanized, hIgG4-kappa) VH: EVQLVESGGGLVKPGGSLRLSCAASGFTFSDYYMTWVRQAPGKGLEWVSSINYDGRNTYYLDSLKSRFTISRDNAKNSLYLQMNSLRAEDTAVYYCARGYYYYGSSPNYFDYWGQGTLVTVSS VL: DIQMTQSPSSLSASVGDRVTITCRASENIYSYLTWYQQKPGKSPKLLVYNAKTLAEGVPSRFSGSGSGTQFSLTISSLQPEDFANYYCQQHYGTPLTFGQGTKLEIKR",
0.198,,"人源化ab18抗体 (antibody, human IgG4 S228P, kappa, V domains shown, Humanized, hIgG4-kappa) VH: EVQLVESGGGLVKPGGSLRLSCAASGFTFSDYYMTWVRQAPGKGLEWVASINYDGRNTYYLDSLKSRFTISRDNAKNSLYLQMNSLRAEDTAVYYCARGYYYYGSSPNYFDYWGQGTLVTVSS VL: DIQMTQSPSSLSASVGDRVTITCRASENIYSYLTWYQQKPGKAPKLLIYNAKTLAEGVPSRFSGSGSGTDFTLTISSLQPEDFATYYCQQHYGTPLTFGQGTKLEIKR",
0.184,0.112,"人源化ab32抗体 (全人源化抗体) (antibody, human IgG4 S228P, kappa, V domains shown, Fully humanized (no back mutations), hIgG4-kappa) VH: EVQLVESGGGLVKPGGSLRLSCAASGFTFSDYYMTWVRQAPGKGLEWVSSINYDGRNTYYLDSLKSRFTISRDNAKNSLYLQMNSLRAEDTAVYYCARGYYYYGSSPNYFDYWGQGTLVTVSS VL: DIQMTQSPSSLSASVGDRVTITCRASENIYSYLTWYQQKPGKAPKLLIYNAKTLAEGVPSRFSGSGSGTDFTLTISSLQPEDFATYYCQQHYGTPLTFGQGTKLEIKR",fold weaker than the positive control antibody (猕猴(Macaca)Tim-3蛋白 [6]): ~100 fold; koff [7]: 0.000296 s⁻¹; EC50 (猕猴(Macaca)Tim-3蛋白 [8]): 11 nM

# Reference: CN110272489A (SHANGHAI JIANXIN BIOPHARMACEUTICALS LLC, dated 2019)
